Results on three molecules are retold here after patent US20110060580A1 (published 2011).

To fix the notation:
B1: short co-activator peptide (KDHQLLRYLLDKD) (Seq. Id. No. 3) from SRC-1 (peptide)
peptide: KDHQLLRYLLDKD
notes: 13-residue peptide from SRC-1
B2: short co-activator peptide (ERHKILHRLLQEG) (Seq. Id. No. 4) from SRC-1 (peptide)
peptide: ERHKILHRLLQEG
notes: 13-residue peptide from SRC-1
B3: human LXRβ-LBD (liver X receptor beta ligand binding domain, amino acids 213-461 of Seq. Id. No. 1) (receptor)
chain: GEGEGVQLTAAQELMIQQLVAAQLQCNKRSFSDQPKVTPWPLGADPQSRDARQQRFAHFTELAIISVQEIVDFAKQVPGFLQLGREDQIALLKASTIEIMLLETARRYNHETECITFLKDFTYSKDDFHRAGLQVEFINPIFEFSRAMRRLGLDDAEYALLIAINIFSADRPNVQEPGRVEALQQPYVEALLSYTRIKRPQDQLRFPRMLMKLVSLRTLSSVHSEQVFALRLQDKKLPPLLSEIWDVHE
notes: The His tag was removed by thrombin before crystallization; Id; No. 1; Each crystal also held a small-molecule agonist; also called LXR-LBD; hLXRbeta213G-460E

In data set [1] the target is B3. The experiment in a line: X-ray co-crystal structure (Example 1, space group P43). The protocol: (§1) Protein used for crystallization of LXRβ-LBD together with 2-(4-{[2-(3-Chloro-phenyl)-5-methyl-oxazol-4-ylmethyl]-ethyl-amino }-phenyl)-1,1,1,3,3,3-hexafluoro-propan-2-ol has been purified as described above. The protein was incubated with ligand in a 12-fold molar excess for 2 hours at room temperature. A short co-activator peptide ([…]) (Seq. Id. No. 3) from SRC-1 was added in 12-fold molar excess and incubation continued overnight at 4 ° C. Prior to crystallization experiments the protein was centrifuged at 20000× g. The crystallization droplets were set up at 22 ° C. by mixing 1.5 μl of protein solution with 0.5 μl reservoir solution in vapour diffusion hanging drop experiments. Crystals appeared out of 0.2 M (NH₄)₂SO₄, 25% PEG 3350 after 1 day and grew to final size of 0.15 mm×0.15 mm×0.05 mm within 2 days.
(§2) Crystals were harvested with paraffin oil as cryoprotectant and then flash frozen in a 100 K N2 stream. Diffraction images were collected at a temperature of 100 K at the beamline X06SA of the Swiss Light Source and processed with the programs DENZO and […] yielding data to a resolution of 3.2 Å. Standard crystallographic programs from the CCP4 software suite were used to determine the structure by molecular replacement using an in-house LXRβ-LBD structure as search model. Refinement and model building cycles were performed with REFMAC and MOLOC, respectively (Table 1).

Data set [2] addresses B3. Nature of the data set: X-ray co-crystal structure (Example 3, space group P1). The protocol: Protein used for crystallization of LXRβ-LBD together with - (R,S)-Benzenesulfonyl-(6chloro-2,3,4,9-tetrahydro-1H-carbazol-2-yl)-fluoro-acetic acid methyl ester has been purified as described above. The protein was incubated with ligand in a 15-fold molar excess for 2 hours at room temperature. A short co-activator peptide ([…]) (Seq. Id. No. 4) from SRC-1 was added in 3-fold molar excess and incubation continued overnight at 4 ° C. Prior to crystallization experiments the protein was concentrated to 12 mg/ml and centrifuged at 20000 ×g. The crystallization droplet was set up at room temperature by mixing 1.5 μl of protein solution with 0.5 μl reservoir solution in vapour diffusion hanging drop experiments. Crystals appeared out of 0.1 M Bis-Tris pH 5.5, 0.2 M (NH⁴⁾²SO₄, 25% PEG 3350 after 1 day and grew to final size of 0.2 mm×0.1 mm×0.05 mm within 2 days.
Crystals were harvested with paraffin oil as cryoprotectant and then flash frozen in a 100 K N₂ stream. Diffraction images were collected at a temperature of 100 K at the beamline X06SA of the Swiss Light Source and processed with the programs DENZO and […] yielding data to a resolution of 2.3 Å. Standard crystallographic programs from the CCP4 software suite were used to determine the structure by molecular replacement using an in-house LXR-LBD structure as search model. […]

Data set [3] concerns the molecule itself. The experiment in a line: X-ray co-crystal structure (Example 1); homodimer. The protocol: as §1, §2

Turning to B1, the binding result in data set [1] is given as “binds”.

In the case of B2, the binding result in data set [2] was “binds”.

In the case of B3, the binding result in data set [3] is “binds”.
